Assay results as given in the supplement of paper PMC7877785.
± gives the uncertainty stated by the source.

Assay: self-splicing fitness, log relative to wild type (ln ratio); higher = more splicing; Tetrahymena group I intron in knt gene, E. coli kanamycin selection, DiMSum; sequences stand for … in CUCUCU…GGAGGGAAAAGUUAUCAGGCAUGCACCUGGUAGCUAGUCUUUAAACCAAUAGAUUGCAUCGGUUUAAAAGGCAAGACCGUCAAAUUGCGGGAAAGGGGUCAACAGCCGUUCAGUACCAAGUCUCAGGGGAAACUUUGAGAUGGCCUUGCAAAGGGUAUGGUAAUAAGCUGACGGACAUGGUCCUAACCACGCAGCCAAGUCCUAAGUCAACAGAUCUUCUGUUGAUAUGGAUGCAGUUCACAGACUAAAUGUCGGUCGGGGAAGAUGUAUUCUUCUCAUAAGAUAUAGUCGGACCUCUCCUUAAUGGGAGCUAGCGGAUGAAGUGAUGCAACACUGGAGCCGCUGGGAACUAAUUUGUAUGCGAAAGUAUAUUGAUUAGUUUUGGAGUACUCGUGGUCG
Outline: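 Colonies from six replicate transformations of E. coli BL21(DE3) were pooled and amplicon-sequenced on an Illumina HiSeq 2500. The library placed an intron with all eight P1ex-region nucleotides randomised inside the knt kanamycin-resistance gene on pET-22b(+), and cells grew overnight at 37°C or 30°C on LB agar with or without 25 μg/mL kanamycin (plus 100 μg/mL carbenicillin, 50 μM IPTG, 0.2% rhamnose). Fitness is the DiMSum error-weighted combination of wild-type-normalised replicate fold changes, kanamycin versus none.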

Sequence	self-splicing fitness (ln) (30 °C)	self-splicing fitness (ln) (37 °C)
GUCUAGCAAUAUUACGGAAA	-0.658 ± 0.12	-0.44 ± 0.12
CUUCAGCAAUAUUACGUUGA	-3.08 ± 0.25	-2.85 ± 0.24
AACGAGCAAUAUUACGUAUG	-4.21 ± 0.23	-2.59 ± 0.17
UACCAGCAAUAUUACGAUCA	-0.119 ± 0.07	-0.323 ± 0.09
CCAUAGCAAUAUUACGGGAA	-3.49 ± 0.19	-2.84 ± 0.18
AUACAGCAAUAUUACGGUGC	-3.65 ± 0.19	-1.74 ± 0.16
GCAGAGCAAUAUUACGAAUU	-3.99 ± 0.42	-2.05 ± 0.37
CCGCAGCAAUAUUACGGAAU	-4.02 ± 0.25	-2.89 ± 0.34
CGGGAGCAAUAUUACGAGUU	-3.12 ± 0.27	-2.59 ± 0.36
GUAUAGCAAUAUUACGCGCG	-1.55 ± 0.14	-0.678 ± 0.15
UAGUAGCAAUAUUACGGAAU		-2.65 ± 0.44
GUCUAGCAAUAUUACGGUUA	-0.904 ± 0.15	-0.443 ± 0.13
CUCUAGCAAUAUUACGGACU		-4.16 ± 0.39
ACGCAGCAAUAUUACGUAGA	-2.99 ± 0.16	-2.53 ± 0.21
ACAUAGCAAUAUUACGCUAG	-2 ± 0.11	-0.855 ± 0.13
CAAUAGCAAUAUUACGGUCA	-3.09 ± 0.18	-1.55 ± 0.12
GGUUAGCAAUAUUACGAUAA	-0.985 ± 0.12	-0.35 ± 0.14
AUUGAGCAAUAUUACGAGGA	-1.8 ± 0.32	-2.41 ± 0.29
AUGAAGCAAUAUUACGAGAG	-2.78 ± 0.15	-0.788 ± 0.1
AGGAAGCAAUAUUACGAGUG	-2.62 ± 0.13	-1.8 ± 0.14
CUGUAGCAAUAUUACGAACG	0.0721 ± 0.084	0.403 ± 0.1
CCAGAGCAAUAUUACGUUCA	-2.45 ± 0.32	-2.32 ± 0.34
UGCGAGCAAUAUUACGGGUA	-1.19 ± 0.18	-0.698 ± 0.21
AUCGAGCAAUAUUACGAAGA	-1.74 ± 0.44	-1.65 ± 0.38
GGUUAGCAAUAUUACGACAC	0.342 ± 0.2	-0.137 ± 0.24

Sequence	self-splicing fitness (ln) (30 °C)	self-splicing fitness (ln) (37 °C)
AUCGAGCAAUAUUACGAGUA	-3.25 ± 0.41	-1.58 ± 0.28
GUUUAGCAAUAUUACGGUUU	-1.32 ± 0.1	-0.0737 ± 0.13
CUUCAGCAAUAUUACGUCUU	-3.19 ± 0.16	-3.67 ± 0.42
GCUGAGCAAUAUUACGCUUG	-3.25 ± 0.29	-1.57 ± 0.29
GCAUAGCAAUAUUACGGCCA	-1.05 ± 0.19	-1.17 ± 0.21
ACACAGCAAUAUUACGGGCU	-2.08 ± 0.093	-1.11 ± 0.13
GCGCAGCAAUAUUACGUCGG	-1.4 ± 0.097	-0.816 ± 0.13
GUGCAGCAAUAUUACGUGUG	-2.95 ± 0.11	-1.33 ± 0.1
UGGAAGCAAUAUUACGCCUG	-0.491 ± 0.083	-0.15 ± 0.099
AAGAAGCAAUAUUACGAGGC	-3.86 ± 0.42	-2.48 ± 0.33
AUCUAGCAAUAUUACGGACC	-0.962 ± 0.16	-0.141 ± 0.23
UCACAGCAAUAUUACGGAAG	-3.85 ± 0.23	-2.3 ± 0.17
GAUCAGCAAUAUUACGCGGA	-1.45 ± 0.18	-0.828 ± 0.14
CCCAAGCAAUAUUACGGCUA	-4.01 ± 0.42	-3.19 ± 0.32
GUGCAGCAAUAUUACGCGGU	-2.93 ± 0.19	-2.94 ± 0.32
ACCAAGCAAUAUUACGAAGU	-3.09 ± 0.14	-1.31 ± 0.14
UCUUAGCAAUAUUACGAACU	-2.7 ± 0.36	-1.84 ± 0.25
AGAAAGCAAUAUUACGAAUC	-3 ± 0.26	-2.39 ± 0.24
UGAUAGCAAUAUUACGUGUC	-3.92 ± 0.28	-2.49 ± 0.26
GCAAAGCAAUAUUACGGCGC	-2.1 ± 0.19	-0.824 ± 0.2
CAUAAGCAAUAUUACGUGUU	-3.05 ± 0.13	-2.62 ± 0.13
CGGUAGCAAUAUUACGUUUG	-0.275 ± 0.082	-0.027 ± 0.098
UGCGAGCAAUAUUACGUGAG	-4.57 ± 0.36	-2.63 ± 0.18
UGGAAGCAAUAUUACGGCCU	-0.816 ± 0.11	-0.639 ± 0.13
CUCAAGCAAUAUUACGGUUU	-2.38 ± 0.1	-2.36 ± 0.14

Sequence	self-splicing fitness (ln) (30 °C)	self-splicing fitness (ln) (37 °C)
AGCCAGCAAUAUUACGGCAA	-0.763 ± 0.067	-0.321 ± 0.075
CUAGAGCAAUAUUACGACUA	-1.97 ± 0.12	-1.26 ± 0.15
GGAGAGCAAUAUUACGAUAC	-2.61 ± 0.35	-2.47 ± 0.31
GGACAGCAAUAUUACGUCCU	-4.07 ± 0.22	-2.66 ± 0.33
GGAGAGCAAUAUUACGUGUC	-3.21 ± 0.26	-1.46 ± 0.24
UUAGAGCAAUAUUACGGCUA	-0.0336 ± 0.14	0.4 ± 0.17
AGAAAGCAAUAUUACGAGUU	-1.58 ± 0.084	-0.668 ± 0.11
UACGAGCAAUAUUACGUUGA	-3.2 ± 0.24	-2.73 ± 0.23
AACCAGCAAUAUUACGUCCC	-0.726 ± 0.13	0.292 ± 0.18
CCGAAGCAAUAUUACGCGCU		-2.26 ± 0.42
CUGGAGCAAUAUUACGCGUA		-2.81 ± 0.43
GAACAGCAAUAUUACGUUAU	-2.01 ± 0.066	-1.13 ± 0.077
GUGUAGCAAUAUUACGAAUC	-1.43 ± 0.17	-0.973 ± 0.14
AGUAAGCAAUAUUACGACUA	-0.283 ± 0.13	-0.43 ± 0.13
GCAGAGCAAUAUUACGUCCU	-3.22 ± 0.42	-0.41 ± 0.27
AGUGAGCAAUAUUACGGCGC	-0.869 ± 0.35	-0.599 ± 0.2
GUACAGCAAUAUUACGCCUC	-0.924 ± 0.14	-0.219 ± 0.16
UCAAAGCAAUAUUACGACUC	-2.99 ± 0.38	-0.37 ± 0.23
AGCCAGCAAUAUUACGACGC	-1.66 ± 0.14	-0.853 ± 0.16
CACGAGCAAUAUUACGUACG	-2.38 ± 0.14	-0.807 ± 0.15
GGUCAGCAAUAUUACGAGCU	-0.647 ± 0.097	-0.497 ± 0.12
GUGUAGCAAUAUUACGAUAC	-2.23 ± 0.25	-1.01 ± 0.25
AGGUAGCAAUAUUACGUCUU	-0.915 ± 0.014	-0.371 ± 0.033
CUGGAGCAAUAUUACGGUUU	-2.21 ± 0.15	-2.43 ± 0.26
CGGUAGCAAUAUUACGAGUC	-2.07 ± 0.43	

Sequence	self-splicing fitness (ln) (30 °C)	self-splicing fitness (ln) (37 °C)
CUGCAGCAAUAUUACGGGGC	-3.94 ± 0.22	-1.83 ± 0.18
CCCGAGCAAUAUUACGCAUU	-3.69 ± 0.33	-2.22 ± 0.3
UGUGAGCAAUAUUACGUCAU		-1.32 ± 0.4
UCUAAGCAAUAUUACGUGCG	-0.493 ± 0.1	-0.581 ± 0.15
UGACAGCAAUAUUACGGACA	-0.474 ± 0.08	0.431 ± 0.12
AUUGAGCAAUAUUACGAAGU	-1.71 ± 0.29	-1.72 ± 0.42
CUGAAGCAAUAUUACGCUGA	-3.66 ± 0.24	-3.28 ± 0.43
AGCAAGCAAUAUUACGUCUG	-2.22 ± 0.09	-1.15 ± 0.095
UUGUAGCAAUAUUACGGGGU	-3.7 ± 0.46	-2.68 ± 0.27
GUCUAGCAAUAUUACGUUUC	-0.78 ± 0.057	-0.0328 ± 0.073
UACGAGCAAUAUUACGUGCU	-3.9 ± 0.23	-2.4 ± 0.19
CGUUAGCAAUAUUACGGUGA	-2.76 ± 0.21	-0.883 ± 0.16
GACAAGCAAUAUUACGUACC	-1.71 ± 0.13	-1.11 ± 0.12
CGCUAGCAAUAUUACGUCUG	-0.182 ± 0.078	0.774 ± 0.089
AAUCAGCAAUAUUACGGUCU	-0.356 ± 0.06	-0.224 ± 0.071
AAGAAGCAAUAUUACGCGCU	-0.931 ± 0.11	0.0502 ± 0.12
UUAUAGCAAUAUUACGCACG	-1.18 ± 0.15	-0.14 ± 0.18
CUAAAGCAAUAUUACGACAU	-3.986 ± 0.024	-2.72 ± 0.039
GCCGAGCAAUAUUACGGGAC	-0.849 ± 0.11	-1.12 ± 0.15
UGAUAGCAAUAUUACGCUUC		-2.45 ± 0.35
AUGGAGCAAUAUUACGCGUC	-4.02 ± 0.18	-2.79 ± 0.15
UCUCAGCAAUAUUACGGCAA	-2.86 ± 0.25	-2.44 ± 0.17
